The values that follow come from PMC2018632 (Nucleic Acids Research, 2007).

The test has as its target T1, Escherichia coli uracil-DNA glycosylase (Escherichia coli, UniProt P12295 1-229).
T1 sequence: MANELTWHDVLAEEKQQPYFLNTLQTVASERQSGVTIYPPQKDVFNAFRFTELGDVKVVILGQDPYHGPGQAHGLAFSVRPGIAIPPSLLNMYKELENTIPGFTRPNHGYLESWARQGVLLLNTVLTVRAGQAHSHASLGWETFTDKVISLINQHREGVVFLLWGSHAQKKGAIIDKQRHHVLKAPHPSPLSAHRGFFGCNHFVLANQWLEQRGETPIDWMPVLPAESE
Put plainly: native gel or EMSA. Background: Mobility shift assays separate free from complexed probe on a gel.

B1: Ugi from the Bacillus subtilis phage PBS2 (natural protein)
chain: MTNLSDIIEKETGKQLVIQESILMLPEEVEEVIGNKPESDILVHTAYDESTDENVMLLTSDAPEYKPWALVIQDSNGENKIKML
In the case of B1, the binding result was “binds”.
